Assay [1] deals with downstream genes of c-Myc in MCF7 cells. Briefly: Transcriptome sequencing and RT-PCR of c-Myc downstream genes, MCF7. Type of assay: cell-based, human. The protocol:
Identification at the RNA level: RNA was extracted using RNA extraction kit (RNAprep Pure Polysaccharide Polyphenol Plant Total RNA Extraction Kit (DP441), manufacturer: TIANGEN BIOTECH (BEIJING) CO., LTD.), and then cDNA was obtained using two-step reverse transcription kit (a third-generation premix for two-step de-genomization and reverse transcription, Cat. No.: MR05201). cDNA as a template was added into a 96-well plate, with addition of SYBR®Green I chimeric dye (an antibody dye quantitative PCR premix, Cat. No.: MQ10101) and gene primers for three-step qPCR amplification. Finally, the relative gene expression was calculated based on the Ct value.
And it was validated to be consistent with the transcriptome results (B in FIG. 9) by RT-PCR (the steps of method as Example 1). Wherein, the sequences of RT-PCR primers were as follows: […]
Wherein, the sequences of primers were as follows: […]

The test system of assay [2] is GhNINJA. Nature of the assay: Yeast two hybrid with GhNINJA. It counts as binding, cotton. The protocol:
The study on Arabidopsis had shown that the inhibition of JAZ protein on JA signaling was mainly achieved by inhibiting the transcription factor function of MYC, which had been experimentally verified by us in cotton. Based on the phylogenetic tree of Arabidopsis and cotton JAZs, we screened 6 cotton JAZs (GhJAZ1, GhJAZ7, GhJAZ9, GhJAZ10, GhJAZ11 and GhJAZ31), which were analyzed with GhMYC2, GhNINJA, GhTPL, GhHDA6, and GhCOI1 for yeast two hybrid. The amino acid sequence of GhJAZ1 was set forth in SEQ ID No. 4, and the corresponding encoding gene sequence was set forth in SEQ ID No. 39; the amino acid sequence of GhJAZ7 was set forth in SEQ ID No. 7, and the corresponding encoding gene sequence was set forth in SEQ ID No. 42; the amino acid sequence of GhJAZ9 was set forth in SEQ ID No. 2, and the corresponding encoding gene sequence was set forth in SEQ ID No. 37; the amino acid sequence of GhJAZ10 was set forth in SEQ ID No. 3, and the corresponding encoding gene sequence was set forth in SEQ ID No. 38; the amino acid sequence of GhJAZ11 was set forth in SEQ ID No. 5, and the corresponding encoding gene sequence was set forth in SEQ ID No. 40; and the amino acid sequence of GhJAZ31 was set forth in SEQ ID No. 9, and the corresponding encoding gene sequence was set forth in SEQ ID No. 44. […]

These results are taken from US20240279288A1, “APPLICATION OF PLANT JAZ PROTEINS AND DERIVED POLYPEPTIDES IN PREVENTION AND TREATMENT OF HUMAN AND ANIMAL TUMORS” (ANYANG INSTITUTE OF SINO-COTTON INDUSTRY INNOVATION, priority 2021, published 2024).

GhNINJA, sequence (as listed by the source): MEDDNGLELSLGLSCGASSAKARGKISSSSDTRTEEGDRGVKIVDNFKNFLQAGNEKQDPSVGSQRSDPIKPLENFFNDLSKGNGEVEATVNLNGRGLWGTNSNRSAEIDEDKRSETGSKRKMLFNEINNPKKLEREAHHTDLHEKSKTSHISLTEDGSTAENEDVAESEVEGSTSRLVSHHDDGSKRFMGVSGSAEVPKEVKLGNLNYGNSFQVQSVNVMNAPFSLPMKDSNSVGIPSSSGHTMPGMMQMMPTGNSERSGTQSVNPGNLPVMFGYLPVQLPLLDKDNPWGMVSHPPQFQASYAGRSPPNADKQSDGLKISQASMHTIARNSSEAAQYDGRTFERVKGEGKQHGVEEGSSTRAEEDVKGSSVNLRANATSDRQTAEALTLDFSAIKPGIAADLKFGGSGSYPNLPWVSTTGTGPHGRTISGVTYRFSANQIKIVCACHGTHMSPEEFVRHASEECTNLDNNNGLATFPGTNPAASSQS

B1: GhJAZ1: cotton JAZ1 protein, gene number Gh_A05G0260, sequence SEQ ID No. 4; prokaryotically expressed with His tag, about 30 KD (protein)
chain: MSSCSESTAMKPARSPEKPSFAQTCNLLSQYLKEKGSFGDLSLGMTCNVEANGTPVVPPPTMNLFPLNDKSDDVCGRNGGNPKNLTSMDLFPQQAGLASKDDSPNKLEPQTAPMTIFYGGQVIVFNDFPANKAKEIMLLASNSSSQSNNSFNPIPFTSSIARSPIESSIGVPPTSKPVHPAQRAVPGDLPIARRASLHRFLEKRKDRITAKAPYQINNSAAAPSLSGDNKSWLGLAAQSP
modifications: His tag
notes: prokaryotically expressed with His tag, about 30 KD
B1: the “expression of cell cycle-related genes (transcriptome, validated by RT-PCR)” value in assay [1] (MCF7, 0.691 μM, 24 h) is recorded as “down regulated”. Further, in assay [1] (MCF7, RT-PCR), the “expression of CCNE1” value is listed as “extremely significantly upregulated”; the “expression of P21 gene” value is reported as “extremely significantly upregulated”; the “expression of apoptosis related genes Bcl2, BAX, HK2, FASN, MCM5 downstream of c-Myc” value is on record as “extremely significantly downregulated”; the “expression of cell cycle-related genes CCNA2, CCNB1, CCND1” value is given as “extremely significantly downregulated”. Also, in assay [2], the “interaction with GhNINJA” value was “interacted”.
